Source: paper doi:10.1101/386532 (bioRxiv, 2018)
Values belong to the binder of their own block, whether it stands above or below them.

B2: IST1(1–189) (IST1NTD) (domain or fragment, human, UniProt P53990 1-189, looked up)
chain: MLGSGFKAERLRVNLRLVINRLKLLEKKKTELAQKARKEIADYLAAGKDERARIRVEHIIREDYLVEAMEILELYCDLLLARFGLIQSMKELDSGLAESVSTLIWAAPRLQSEVAELKIVADQLCAKYSKEYGKLCRTNQIGTVNDRLMHKLSVEAPPKILVERYLIEIAKNYNVPYEPDSVVMAEAPP

How the values were obtained:
cryo-EM structure = target: the molecule itself; assay: cryo-EM structure
[1] = target: the molecule itself; assay: negative stain EM of filament assembly
GST-CHMP1B(4–199) (WT) = target: T1, GST-CHMP1B(4–199) (WT) (human, UniProt Q7LBR1 4-199); assay: SPR
T1 sequence (looked up): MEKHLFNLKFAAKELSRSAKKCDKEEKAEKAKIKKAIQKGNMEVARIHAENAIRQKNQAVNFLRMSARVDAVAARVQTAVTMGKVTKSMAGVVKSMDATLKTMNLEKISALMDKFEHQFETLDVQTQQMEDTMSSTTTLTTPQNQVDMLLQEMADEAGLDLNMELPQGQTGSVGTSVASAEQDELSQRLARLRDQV

IST1(1–189) (IST1NTD) = target: B2; assay: SPR

B1: CHMP1B(4–199) for structure determination (from His-SUMO fusion) (natural protein, human, UniProt Q7LBR1 4-199, looked up)
chain: MEKHLFNLKFAAKELSRSAKKCDKEEKAEKAKIKKAIQKGNMEVARIHAENAIRQKNQAVNFLRMSARVDAVAARVQTAVTMGKVTKSMAGVVKSMDATLKTMNLEKISALMDKFEHQFETLDVQTQQMEDTMSSTTTLTTPQNQVDMLLQEMADEAGLDLNMELPQGQTGSVGTSVASAEQDELSQRLARLRDQV
binding result (cryo-EM structure): binds

Binder: B2
binding result [1]: binds
Kd (GST-CHMP1B(4–199) (WT)): 92 µM

Kd (IST1(1–189) (IST1NTD)): 91 µM
B3: GST-CHMP1Bα6 (CHMP1B MIM1 element alone, residues 186–199) (peptide, UniProt Q7LBR1 186-199, looked up)
chain: DELSQRLARLRDQV
